Experimental data reported in patent US20200317768A1 (published 2020).

T1: cynomolgus monkey FcγRIIa1 extracellular domain, C-terminal His-tag (cynomolgus monkey)
T1 construct: also called cyno FcγRIIa1; cynoFcgRIIa1; not shown: His-tag added to C-terminus
T1 chain: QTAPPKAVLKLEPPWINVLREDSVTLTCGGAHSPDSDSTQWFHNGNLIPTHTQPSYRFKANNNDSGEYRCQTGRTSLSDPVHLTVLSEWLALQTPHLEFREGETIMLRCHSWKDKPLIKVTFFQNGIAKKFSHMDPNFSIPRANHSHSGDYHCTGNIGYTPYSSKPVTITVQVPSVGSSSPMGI

T2: cynomolgus monkey FcγRIIa2 extracellular domain, C-terminal His-tag (cynomolgus monkey)
T2 construct: also called cyno FcγRIIa2; cynoFcgRIIa2; not shown: His-tag added to C-terminus
T2 chain: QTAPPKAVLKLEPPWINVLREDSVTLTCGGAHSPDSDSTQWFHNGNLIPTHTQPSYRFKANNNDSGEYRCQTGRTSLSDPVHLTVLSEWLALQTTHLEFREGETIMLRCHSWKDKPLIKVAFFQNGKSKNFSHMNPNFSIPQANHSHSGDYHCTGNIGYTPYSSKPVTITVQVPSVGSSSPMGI

T3: cynomolgus monkey FcγRIIa3 extracellular domain, C-terminal His-tag (cynomolgus monkey)
T3 construct: also called cyno FcγRIIa3; cynoFcgRIIa3; not shown: His-tag added to C-terminus
T3 chain: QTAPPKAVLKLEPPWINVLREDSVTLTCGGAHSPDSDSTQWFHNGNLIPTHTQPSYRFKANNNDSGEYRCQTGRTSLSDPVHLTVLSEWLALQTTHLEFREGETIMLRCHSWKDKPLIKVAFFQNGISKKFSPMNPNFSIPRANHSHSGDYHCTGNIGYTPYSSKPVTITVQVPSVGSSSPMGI

T4: cynomolgus monkey FcγRIIb extracellular domain, C-terminal His-tag (cynomolgus monkey)
T4 construct: also called cyno FcγRIIb; cynoFcγRIIb; not shown: His-tag added to C-terminus
T4 chain: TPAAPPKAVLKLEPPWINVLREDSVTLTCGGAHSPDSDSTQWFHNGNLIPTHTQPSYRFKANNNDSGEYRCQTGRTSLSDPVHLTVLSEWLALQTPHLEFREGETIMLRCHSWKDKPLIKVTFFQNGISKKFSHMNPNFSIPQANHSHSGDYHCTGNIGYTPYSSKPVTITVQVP

T5: human FcγRIIaH extracellular domain, C-terminal His-tag (human, UniProt P12318 34-217)
T5 construct: also called human FcγRIIa (type H); FcgRIIaH; not shown: His-tag added to C-terminus
T5 sequence: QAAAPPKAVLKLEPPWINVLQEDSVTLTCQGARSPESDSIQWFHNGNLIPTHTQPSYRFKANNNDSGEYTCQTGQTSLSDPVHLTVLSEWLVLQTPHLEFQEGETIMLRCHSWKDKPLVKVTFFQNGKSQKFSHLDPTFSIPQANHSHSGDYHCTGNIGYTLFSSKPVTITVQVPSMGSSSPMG

T6: human FcγRIIaR extracellular domain, C-terminal His-tag (human, UniProt P12318 34-217)
T6 construct: also called human FcγRIIa (type R); FcgRIIaR; not shown: His-tag added to C-terminus
T6 chain: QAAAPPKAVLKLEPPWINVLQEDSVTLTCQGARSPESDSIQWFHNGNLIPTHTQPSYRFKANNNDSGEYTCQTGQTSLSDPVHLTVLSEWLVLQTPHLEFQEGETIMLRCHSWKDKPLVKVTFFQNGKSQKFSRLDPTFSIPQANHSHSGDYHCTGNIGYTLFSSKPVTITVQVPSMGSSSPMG

T7: human FcγRIIb extracellular domain, C-terminal His-tag (human, UniProt P31994 43-217)
T7 construct: also called humanFcgRIIb; not shown: His-tag added to C-terminus
T7 sequence: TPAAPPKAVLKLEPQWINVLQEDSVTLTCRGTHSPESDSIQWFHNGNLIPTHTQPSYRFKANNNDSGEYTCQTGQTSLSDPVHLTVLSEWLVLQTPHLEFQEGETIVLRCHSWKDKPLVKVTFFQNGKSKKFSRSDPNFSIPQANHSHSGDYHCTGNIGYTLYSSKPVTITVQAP


Columns and labels:
[1] = molecular target: T1, cynomolgus monkey FcγRIIa1 …; test: SPR (BIACORE), antibody captured, FcγR analyte
Description: (§1) The kinetic analysis of interactions between these antibodies and FcγR was carried out using BIACORE® T200 or BIACORE® 4000 (GE Healthcare). HBS-EP+ (GE Healthcare) was used as the running buffer, and the measurement temperature was set to 25° C. A chip produced by immobilizing Protein A. Protein A/G or mouse anti-human IgG kappa light chain (BD Biosciences) onto a Series S Sensor Chip CM4 or CM5 (GE Healthcare) by the amine-coupling method was used. […] After the measurement, the antibody captured on the chip was washed off by allowing reaction with 10 mM glycine-HCl, pH1.5 and 25 mM NaOH so that the chip was regenerated and used repeatedly. The sensorgrams obtained as measurement results were analyzed by the 1:1 Langmuir binding model using the BIACORE® Evaluation Software to calculate the binding rate constant ka (L/mol/s) and dissociation rate constant kd (l/s), and the dissociation constant KD (mol/L) was calculated from these values. […] Regarding such interactions, KD values were calculated using the following 1:1 binding model described in BIACORE® T100 Software Handbook BR1006-48 Edition AE.

[2] = molecular target: T2, cynomolgus monkey FcγRIIa2 …; test: SPR (BIACORE), antibody captured, FcγR analyte
Description: as §1

[3] = molecular target: T3, cynomolgus monkey FcγRIIa3 …; test: SPR (BIACORE), antibody captured, FcγR analyte
Description: as §1

[4] = molecular target: T4, cynomolgus monkey FcγRIIb extracellular …; test: SPR (BIACORE), antibody captured, FcγR analyte
Description: as §1

[5] = molecular target: T8, cynomolgus monkey FcγRIIIaS extracellular domain, C-terminal His-tag (cynomolgus monkey, UniProt A3RFZ7 21-206 (rhesus entry)); test: SPR (BIACORE), antibody captured, FcγR analyte
T8 construct: also called cyno FcγRIIIaS; cynoFcγRIIIaS; not shown: His-tag added to C-terminus
Description: as §1

[6] = molecular target: T5, human FcγRIIaH extracellular domain, …; test: SPR (BIACORE), antibody captured, FcγR analyte
Description: as §1

[7] = molecular target: T6, human FcγRIIaR extracellular domain, …; test: SPR (BIACORE), antibody captured, FcγR analyte
Description: as §1

[8] = molecular target: T7, human FcγRIIb extracellular domain, …; test: SPR (BIACORE), antibody captured, FcγR analyte
Description: as §1

[9] = molecular target: T9, human FcγRIIIaV extracellular domain, C-terminal His-tag (human, UniProt P08637 17-208); test: SPR (BIACORE), antibody captured, FcγR analyte
T9 construct: also called FcgRIIIaV; not shown: His-tag added to C-terminus
Description: as §1

[10] = molecular target: T1, cynomolgus monkey FcγRIIa1 …; test: SPR (BIACORE); KD of parent SG1 / KD of variant;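 further: relative to parent M103205H795-SG1 carrying the SG1 human heavy chain constant region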
Description: as §1

[11] = molecular target: T2, cynomolgus monkey FcγRIIa2 …; test: SPR (BIACORE); KD of parent SG1 / KD of variant;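 further: relative to parent M103205H795-SG1 carrying the SG1 human heavy chain constant region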
Description: as §1

[12] = molecular target: T3, cynomolgus monkey FcγRIIa3 …; test: SPR (BIACORE); KD of parent SG1 / KD of variant;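 further: relative to parent M103205H795-SG1 carrying the SG1 human heavy chain constant region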
Description: as §1

[13] = molecular target: T4, cynomolgus monkey FcγRIIb extracellular …; test: SPR (BIACORE); KD of parent SG1 / KD of variant;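 further: relative to parent M103205H795-SG1 carrying the SG1 human heavy chain constant region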
Description: as §1

[14] = molecular target: T8, cynomolgus monkey FcγRIIIaS …; test: SPR (BIACORE); KD of parent SG1 / KD of variant
Description: as §1

[15] = molecular target: T5, human FcγRIIaH extracellular domain, …; test: SPR (BIACORE); KD of parent SG1 / KD of variant
Description: as §1

[16] = molecular target: T6, human FcγRIIaR extracellular domain, …; test: SPR (BIACORE); KD of parent SG1 / KD of variant
Description: as §1

[17] = molecular target: T7, human FcγRIIb extracellular domain, …; test: SPR (BIACORE); KD of parent SG1 / KD of variant
Description: as §1

[18] = molecular target: T9, human FcγRIIIaV extracellular domain, …; test: SPR (BIACORE); KD of parent SG1 / KD of variant
Description: as §1

T9 sequence (P08637 17-208 F176V): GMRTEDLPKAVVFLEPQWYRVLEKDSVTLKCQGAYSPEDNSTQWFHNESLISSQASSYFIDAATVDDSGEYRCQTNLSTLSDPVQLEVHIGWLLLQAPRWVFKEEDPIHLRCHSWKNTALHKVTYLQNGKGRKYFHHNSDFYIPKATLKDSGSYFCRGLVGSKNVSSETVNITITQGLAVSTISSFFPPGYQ
T8 sequence (A3RFZ7 21-206): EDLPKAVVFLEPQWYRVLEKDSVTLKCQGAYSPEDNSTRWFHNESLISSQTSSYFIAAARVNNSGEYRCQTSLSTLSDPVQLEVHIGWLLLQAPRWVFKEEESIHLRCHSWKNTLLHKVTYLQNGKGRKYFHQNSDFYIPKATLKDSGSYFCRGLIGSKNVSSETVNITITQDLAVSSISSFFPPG

Kd [1] [nM] | Kd [2] [nM] | Kd [3] [nM] | Kd [4] [nM] | Kd [5] [nM] | Kd [6] [nM] | Kd [7] [nM] | Kd [8] [nM] | Kd [9] [nM] | KD fold (SG1 = 1) [10] [fold] | KD fold (SG1 = 1) [11] [fold] | KD fold (SG1 = 1) [12] [fold] | KD fold (SG1 = 1) [13] [fold] | KD fold (SG1 = 1) [14] [fold] | KD fold (SG1 = 1) [15] [fold] | KD fold (SG1 = 1) [16] [fold] | KD fold (SG1 = 1) [17] [fold] | KD fold (SG1 = 1) [18] [fold] | Binder
1400 | 1500 | 3100 | 400 | 5300 | 790 | 1300 | 900 | 20000 | 3.5 | 3.1 | 2.8 | 4.9 | 0.05 | 1.1 | 0.8 | 5.3 | 0.03 | M103205H795-SG1029 / M103202L889-SK1 (antibody, human IgG1, kappa, CH with G236N/H268D/Q295L/Q311R/A330K/D413K/N434A against SG1 (EU numbering); also called MS1032LO06-SG1029) heavy: QVTLKESGPVLVKPTETLTLTCTVSGIDLSHDDISWVRQAPGKGLEWVGIISYAGSTYYASWAKGRLTISKDTSKNQVVLTMTNMDPVDTATYYCARGVPAYSHGGDLWGQGTLVTVSSASTKGPSVFPLAPSSKSTSGGTAALGCLVKDYFPEPVTVSWNSGALTSGVHTFPAVLQSSGLYSLSSVVTVPSSSLGTQTYICNVNHKPSNTKVDKKVEPKSCDKTHTCPPCPAPELLNGPSVFLFPPKPKDTLMISRTPEVTCVVVDVSDEDPEVKFNWYVDGVEVHNAKTKPREELYNSTYRVVSVLTVLHRDWLNGKEYKCKVSNKALPKPIEKTISKAKGQPREPQVYTLPPSREEMTKNQVSLTCLVKGFYPSDIAVEWESNGQPENNYKTTPPVLDSDGSFFLYSKLTVKKSRWQQGNVFSCSVMHEALHAHYTQKSLSLSP light: DIVMTQSPATLSLSPGERATLSCTSSQSVYHANWLSWFQQKPGQPPKLLIYWASTLAYGVPSRFSGSGSGTDFTLTISSLQPEDAATYYCAGGYGGGRYAFGQGTKVEIKRTVAAPSVFIFPPSDEQLKSGTASVVCLLNNFYPREAKVQWKVDNALQSGNSQESVTEQDSKDSTYSLSSTLTLSKADYEKHKVYACEVTHQGLSSPVTKSFNRGEC
1800 | 1500 | 2800 | 500 | 4400 | 1800 | 800 | 1200 | 15000 | 2.6 | 3.1 | 3.1 | 3.9 | 0.06 | 0.7 | 1.3 | 3.8 | 0.04 | M103205H795-SG1031 / M103202L889-SK1 (antibody, human IgG1, kappa, CH with G236N/H268D/Q311R/A330K/D413K/N434A against SG1 (EU numbering); also called MS1032LO06-SG1031) heavy: QVTLKESGPVLVKPTETLTLTCTVSGIDLSHDDISWVRQAPGKGLEWVGIISYAGSTYYASWAKGRLTISKDTSKNQVVLTMTNMDPVDTATYYCARGVPAYSHGGDLWGQGTLVTVSSASTKGPSVFPLAPSSKSTSGGTAALGCLVKDYFPEPVTVSWNSGALTSGVHTFPAVLQSSGLYSLSSVVTVPSSSLGTQTYICNVNHKPSNTKVDKKVEPKSCDKTHTCPPCPAPELLNGPSVFLFPPKPKDTLMISRTPEVTCVVVDVSDEDPEVKFNWYVDGVEVHNAKTKPREEQYNSTYRVVSVLTVLHRDWLNGKEYKCKVSNKALPKPIEKTISKAKGQPREPQVYTLPPSREEMTKNQVSLTCLVKGFYPSDIAVEWESNGQPENNYKTTPPVLDSDGSFFLYSKLTVKKSRWQQGNVFSCSVMHEALHAHYTQKSLSLSP light: DIVMTQSPATLSLSPGERATLSCTSSQSVYHANWLSWFQQKPGQPPKLLIYWASTLAYGVPSRFSGSGSGTDFTLTISSLQPEDAATYYCAGGYGGGRYAFGQGTKVEIKRTVAAPSVFIFPPSDEQLKSGTASVVCLLNNFYPREAKVQWKVDNALQSGNSQESVTEQDSKDSTYSLSSTLTLSKADYEKHKVYACEVTHQGLSSPVTKSFNRGEC
